According to PMC8346469:

Biological target: homo-oligomeric archaeal chaperonin from Methanococcus maripaludis (MmCpn) (Methanococcus maripaludis)
Test: cryo-EM structure; MmCpn 4 uM mixed on ice with 32 uM ATP (1 hexadecamer to 8 ATP), frozen immediately; single-particle reconstruction with D8 symmetry (also C1), 3.9 Å; focused classification of rings and subunits

- stoichiometry N: 16 subunits
Substance: homo-oligomeric archaeal chaperonin from Methanococcus maripaludis (MmCpn) (natural protein)
